# Measured values reported in IntAct's records for PubMed 35512704.
# B1: Speckle-type POZ protein (Homo sapiens), O43791 (parent)
# chain: MSRVPSPPPPAEMSSGPVAESWCYTQIKVVKFSYMWTINNFSFCREEMGEVIKSSTFSSGANDKLKWCLRVNPKGLDEESKDYLSLYLLLVSCPKSEVRAKFKFSILNAKGEETKAMESQRAYRFVQGKDWGFKKFIRRDFLLDEANGLLPDDKLTLFCEVSVVQDSVNISGQNTMNMVKVPECRLADELGGLWENSRFTDCCLCVAGQEFQAHKAILAARSPVFSAMFEHEMEESKKNRVEINDVEPEVFKEMMCFIYTGKAPNLDKMADDLLAAADKYALERLKVMCEDALCSNLSVENAAEILILADLHSADQLKTQAVDFINYHASDVLETSGWKSMVVSHPHLVAEAYRSLASAQCPFLGPPRKRLKQS
# partner: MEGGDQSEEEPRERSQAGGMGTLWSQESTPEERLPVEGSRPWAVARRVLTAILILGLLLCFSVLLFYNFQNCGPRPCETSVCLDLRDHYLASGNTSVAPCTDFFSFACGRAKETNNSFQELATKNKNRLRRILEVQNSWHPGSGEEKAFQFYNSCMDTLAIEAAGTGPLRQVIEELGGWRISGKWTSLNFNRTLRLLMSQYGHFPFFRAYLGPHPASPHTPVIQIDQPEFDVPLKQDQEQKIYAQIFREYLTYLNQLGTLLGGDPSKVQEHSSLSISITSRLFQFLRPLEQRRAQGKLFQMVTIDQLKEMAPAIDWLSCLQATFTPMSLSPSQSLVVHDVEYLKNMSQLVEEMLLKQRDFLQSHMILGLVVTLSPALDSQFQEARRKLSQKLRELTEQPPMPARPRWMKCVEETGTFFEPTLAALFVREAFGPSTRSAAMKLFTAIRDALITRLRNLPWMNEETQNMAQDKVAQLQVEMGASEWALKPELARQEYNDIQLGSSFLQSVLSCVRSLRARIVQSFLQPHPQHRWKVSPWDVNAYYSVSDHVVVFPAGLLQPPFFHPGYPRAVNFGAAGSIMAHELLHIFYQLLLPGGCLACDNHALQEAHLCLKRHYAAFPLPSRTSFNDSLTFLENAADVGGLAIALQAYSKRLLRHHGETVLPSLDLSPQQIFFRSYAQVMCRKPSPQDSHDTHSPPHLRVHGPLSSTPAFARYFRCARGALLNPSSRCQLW
# B2: Speckle-type POZ protein (Homo sapiens), O43791 (parent)
# chain: B1 chain
# partner: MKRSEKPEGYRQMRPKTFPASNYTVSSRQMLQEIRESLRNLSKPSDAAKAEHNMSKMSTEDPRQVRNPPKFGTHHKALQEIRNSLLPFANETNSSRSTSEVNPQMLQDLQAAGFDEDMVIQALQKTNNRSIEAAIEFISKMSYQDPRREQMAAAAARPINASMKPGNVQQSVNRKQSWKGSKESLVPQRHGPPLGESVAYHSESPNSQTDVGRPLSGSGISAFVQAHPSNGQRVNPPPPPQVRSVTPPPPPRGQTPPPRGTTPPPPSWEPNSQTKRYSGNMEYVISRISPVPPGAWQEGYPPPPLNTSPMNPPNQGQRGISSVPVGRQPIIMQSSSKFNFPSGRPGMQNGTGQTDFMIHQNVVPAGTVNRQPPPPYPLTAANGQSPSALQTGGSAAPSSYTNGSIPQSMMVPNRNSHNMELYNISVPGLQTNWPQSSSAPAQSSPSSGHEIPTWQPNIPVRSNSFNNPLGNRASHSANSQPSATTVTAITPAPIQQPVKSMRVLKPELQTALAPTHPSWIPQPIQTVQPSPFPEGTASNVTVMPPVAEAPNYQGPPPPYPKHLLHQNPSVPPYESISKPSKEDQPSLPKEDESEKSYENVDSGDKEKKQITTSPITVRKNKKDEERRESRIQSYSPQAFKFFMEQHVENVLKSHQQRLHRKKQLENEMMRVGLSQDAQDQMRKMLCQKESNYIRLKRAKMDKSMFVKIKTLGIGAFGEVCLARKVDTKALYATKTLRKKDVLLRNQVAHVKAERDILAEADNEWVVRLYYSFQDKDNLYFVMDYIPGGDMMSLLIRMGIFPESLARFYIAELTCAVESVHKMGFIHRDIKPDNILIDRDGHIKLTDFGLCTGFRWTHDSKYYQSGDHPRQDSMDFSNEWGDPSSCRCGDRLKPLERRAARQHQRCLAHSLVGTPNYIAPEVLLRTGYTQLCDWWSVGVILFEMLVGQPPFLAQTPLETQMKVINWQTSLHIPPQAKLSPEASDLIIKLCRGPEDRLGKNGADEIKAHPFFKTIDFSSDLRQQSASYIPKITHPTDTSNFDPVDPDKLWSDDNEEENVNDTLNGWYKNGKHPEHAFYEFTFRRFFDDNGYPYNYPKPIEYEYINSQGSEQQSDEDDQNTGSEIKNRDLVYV
# B3: Speckle-type POZ protein (Homo sapiens), O43791 (parent)
# chain: B1 chain
# partner: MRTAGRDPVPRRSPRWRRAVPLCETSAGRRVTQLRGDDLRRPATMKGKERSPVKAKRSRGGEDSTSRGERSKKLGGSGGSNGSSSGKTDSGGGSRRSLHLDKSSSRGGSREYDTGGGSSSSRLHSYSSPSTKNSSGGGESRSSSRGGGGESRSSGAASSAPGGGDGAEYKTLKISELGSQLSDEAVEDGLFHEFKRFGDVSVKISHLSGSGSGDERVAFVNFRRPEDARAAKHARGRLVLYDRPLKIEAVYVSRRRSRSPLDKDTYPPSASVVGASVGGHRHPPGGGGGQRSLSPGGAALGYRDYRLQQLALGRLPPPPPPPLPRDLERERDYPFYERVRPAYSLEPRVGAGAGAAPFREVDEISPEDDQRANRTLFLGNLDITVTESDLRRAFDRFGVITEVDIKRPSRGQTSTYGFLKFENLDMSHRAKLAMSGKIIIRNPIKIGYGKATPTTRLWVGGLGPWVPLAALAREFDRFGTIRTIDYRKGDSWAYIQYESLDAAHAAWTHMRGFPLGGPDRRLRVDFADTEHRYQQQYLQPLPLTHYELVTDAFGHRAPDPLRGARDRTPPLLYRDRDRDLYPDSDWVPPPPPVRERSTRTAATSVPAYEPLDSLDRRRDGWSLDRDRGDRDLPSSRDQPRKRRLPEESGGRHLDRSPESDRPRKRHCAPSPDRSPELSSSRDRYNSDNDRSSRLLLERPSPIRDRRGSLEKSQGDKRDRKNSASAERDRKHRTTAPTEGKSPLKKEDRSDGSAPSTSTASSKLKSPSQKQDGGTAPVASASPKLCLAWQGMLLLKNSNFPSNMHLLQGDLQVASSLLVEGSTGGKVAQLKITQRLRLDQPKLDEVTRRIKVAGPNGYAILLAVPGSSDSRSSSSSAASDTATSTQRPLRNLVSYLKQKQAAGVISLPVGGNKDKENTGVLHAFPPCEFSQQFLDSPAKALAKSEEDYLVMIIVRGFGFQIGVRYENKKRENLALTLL
# B4: Speckle-type POZ protein (Homo sapiens), O43791 (parent)
# chain: B1 chain
# partner: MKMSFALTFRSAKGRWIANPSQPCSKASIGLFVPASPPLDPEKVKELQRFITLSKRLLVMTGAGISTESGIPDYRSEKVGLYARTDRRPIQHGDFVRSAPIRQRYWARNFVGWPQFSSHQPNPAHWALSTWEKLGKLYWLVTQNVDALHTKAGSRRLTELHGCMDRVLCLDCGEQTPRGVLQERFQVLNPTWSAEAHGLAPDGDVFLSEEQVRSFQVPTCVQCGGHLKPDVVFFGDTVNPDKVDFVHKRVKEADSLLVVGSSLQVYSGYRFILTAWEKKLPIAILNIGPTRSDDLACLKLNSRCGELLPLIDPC
# B5: Speckle-type POZ protein (Homo sapiens), O43791 (parent)
# chain: B1 chain
# partner: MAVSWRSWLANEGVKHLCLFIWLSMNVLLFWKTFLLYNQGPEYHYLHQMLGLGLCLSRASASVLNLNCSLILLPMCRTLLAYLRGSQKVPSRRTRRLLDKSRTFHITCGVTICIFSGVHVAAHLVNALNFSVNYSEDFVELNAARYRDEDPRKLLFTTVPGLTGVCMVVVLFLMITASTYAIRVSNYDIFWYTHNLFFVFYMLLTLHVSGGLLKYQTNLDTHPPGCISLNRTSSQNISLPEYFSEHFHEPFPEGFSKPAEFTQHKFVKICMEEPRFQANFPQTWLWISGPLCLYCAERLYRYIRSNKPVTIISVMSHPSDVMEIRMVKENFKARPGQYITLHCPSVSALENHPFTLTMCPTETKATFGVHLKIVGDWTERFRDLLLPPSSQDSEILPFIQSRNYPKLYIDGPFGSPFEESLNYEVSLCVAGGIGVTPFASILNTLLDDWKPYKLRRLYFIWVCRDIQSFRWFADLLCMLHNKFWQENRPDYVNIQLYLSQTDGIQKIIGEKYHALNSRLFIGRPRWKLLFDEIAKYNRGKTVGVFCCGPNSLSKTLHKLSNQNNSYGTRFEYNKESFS
# B6: Speckle-type POZ protein (Homo sapiens), O43791 (parent)
# chain: B1 chain
# partner: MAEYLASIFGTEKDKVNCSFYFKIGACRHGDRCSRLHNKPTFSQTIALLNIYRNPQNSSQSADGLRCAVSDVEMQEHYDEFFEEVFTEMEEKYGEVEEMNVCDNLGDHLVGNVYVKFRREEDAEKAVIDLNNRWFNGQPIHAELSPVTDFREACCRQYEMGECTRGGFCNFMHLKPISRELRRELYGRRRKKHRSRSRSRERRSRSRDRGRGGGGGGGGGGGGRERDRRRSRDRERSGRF
# B7: Speckle-type POZ protein (Homo sapiens), O43791 (parent)
# chain: B1 chain
# partner: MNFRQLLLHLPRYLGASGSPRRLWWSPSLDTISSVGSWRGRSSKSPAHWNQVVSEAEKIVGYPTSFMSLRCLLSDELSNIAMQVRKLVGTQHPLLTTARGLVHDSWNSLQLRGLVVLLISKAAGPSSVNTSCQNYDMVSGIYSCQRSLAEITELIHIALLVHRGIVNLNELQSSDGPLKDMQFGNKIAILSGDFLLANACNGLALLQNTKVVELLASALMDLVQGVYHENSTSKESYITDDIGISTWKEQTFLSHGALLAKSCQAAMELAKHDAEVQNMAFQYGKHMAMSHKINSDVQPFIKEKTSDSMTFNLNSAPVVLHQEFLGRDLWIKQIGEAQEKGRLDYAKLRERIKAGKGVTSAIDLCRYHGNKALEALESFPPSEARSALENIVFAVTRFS
# Variants of: B1
# Conditions: with kell_human KEL
row,effect of a mutation on the interaction,Variant
1,with no effect,F133L

# Variants of: B1
# Conditions: with kell_human KEL
# Remark: another data set of the same source
row,effect of a mutation on the interaction,Variant
1,with no effect,Y87C

# Variants of: B2
# Conditions: with lats1_human LATS1, O95835
row,effect of a mutation on the interaction,Variant
1,with no effect,Y87C

# Variants of: B2
# Conditions: with lats1_human LATS1, O95835
# Remark: another data set of the same source
row,effect of a mutation on the interaction,Variant
1,with no effect,F133V

# Variants of: B2
# Conditions: with lats1_human LATS1, O95835
# Remark: another data set of the same source
row,effect of a mutation on the interaction,Variant
1,with no effect,F133L

# Variants of: B3
# Conditions: with rbm15_human RBM15, Q96T37
row,effect of a mutation on the interaction,Variant
1,with no effect,F133V

# Variants of: B3
# Conditions: with rbm15_human RBM15, Q96T37
# Remark: another data set of the same source
row,effect of a mutation on the interaction,Variant
1,with no effect,F133L

# Variants of: B4
# Conditions: with sir4_human SIRT4, Q9Y6E7
row,effect of a mutation on the interaction,Variant
1,with no effect,F102C

# Variants of: B4
# Conditions: with sir4_human SIRT4, Q9Y6E7
# Remark: another data set of the same source
row,effect of a mutation on the interaction,Variant
1,with no effect,Y87C

# Variants of: B4
# Conditions: with sir4_human SIRT4, Q9Y6E7
# Remark: another data set of the same source
row,effect of a mutation on the interaction,Variant
1,with no effect,F133L

# Variants of: B4
# Conditions: with sir4_human SIRT4, Q9Y6E7
# Remark: another data set of the same source
row,effect of a mutation on the interaction,Variant
1,with no effect,F133V

# Variants of: B5
# Conditions: with nox4_human NOX4, Q9NPH5
row,effect of a mutation on the interaction,Variant
1,with no effect,Y87C

# Variants of: B6
# Conditions: with U2AF1, Q01081
row,effect of a mutation on the interaction,Variant
1,with no effect,F102C

# Variants of: B6
# Conditions: with U2AF1, Q01081
# Remark: another data set of the same source
row,effect of a mutation on the interaction,Variant
1,with no effect,F133V

# Variants of: B6
# Conditions: with U2AF1, Q01081
# Remark: another data set of the same source
row,effect of a mutation on the interaction,Variant
1,with no effect,F133L

# Variants of: B6
# Conditions: with U2AF1, Q01081
# Remark: another data set of the same source
row,effect of a mutation on the interaction,Variant
1,with no effect,Y87C

# Variants of: B7
# Conditions: with dlp1_human PDSS2, Q86YH6
row,effect of a mutation on the interaction,Variant
1,with no effect,Y87C
